Laboratory results taken from patent publication US20230055408A1 (JIANGSU HENGRUI MEDICINE, published 2023).
Numbering of substitutions follows the chain as printed.

T1: monkey CEA expressed on CHO cell surface (cynomolgus monkey)
T1 construct: also called cynoCEA-CHO; monkey CEA proteins on the cell surface
T1 chain: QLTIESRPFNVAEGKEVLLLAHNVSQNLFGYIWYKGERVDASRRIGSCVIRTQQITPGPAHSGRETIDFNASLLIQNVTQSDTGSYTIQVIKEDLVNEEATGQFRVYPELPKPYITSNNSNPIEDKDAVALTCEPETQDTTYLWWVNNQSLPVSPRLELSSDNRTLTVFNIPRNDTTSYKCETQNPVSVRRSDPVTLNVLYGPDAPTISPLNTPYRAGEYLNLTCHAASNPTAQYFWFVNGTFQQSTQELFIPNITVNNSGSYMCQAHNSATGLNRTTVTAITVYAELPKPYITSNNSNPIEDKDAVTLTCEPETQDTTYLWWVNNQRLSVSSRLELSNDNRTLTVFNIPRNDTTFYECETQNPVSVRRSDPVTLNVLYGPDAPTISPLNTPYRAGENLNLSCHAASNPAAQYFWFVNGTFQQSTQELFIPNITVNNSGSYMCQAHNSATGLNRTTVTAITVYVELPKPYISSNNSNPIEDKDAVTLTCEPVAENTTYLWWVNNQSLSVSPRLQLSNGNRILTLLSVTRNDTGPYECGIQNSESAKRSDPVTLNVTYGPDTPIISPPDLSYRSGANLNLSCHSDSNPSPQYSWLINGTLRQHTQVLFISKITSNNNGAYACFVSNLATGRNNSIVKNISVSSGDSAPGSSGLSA

T2: human CEA protein on the cell surface (human, UniProt P06731 35-685)
T2 construct: whole, on cells; also called CEACAM-5; CD66e
T2 sequence (looked up): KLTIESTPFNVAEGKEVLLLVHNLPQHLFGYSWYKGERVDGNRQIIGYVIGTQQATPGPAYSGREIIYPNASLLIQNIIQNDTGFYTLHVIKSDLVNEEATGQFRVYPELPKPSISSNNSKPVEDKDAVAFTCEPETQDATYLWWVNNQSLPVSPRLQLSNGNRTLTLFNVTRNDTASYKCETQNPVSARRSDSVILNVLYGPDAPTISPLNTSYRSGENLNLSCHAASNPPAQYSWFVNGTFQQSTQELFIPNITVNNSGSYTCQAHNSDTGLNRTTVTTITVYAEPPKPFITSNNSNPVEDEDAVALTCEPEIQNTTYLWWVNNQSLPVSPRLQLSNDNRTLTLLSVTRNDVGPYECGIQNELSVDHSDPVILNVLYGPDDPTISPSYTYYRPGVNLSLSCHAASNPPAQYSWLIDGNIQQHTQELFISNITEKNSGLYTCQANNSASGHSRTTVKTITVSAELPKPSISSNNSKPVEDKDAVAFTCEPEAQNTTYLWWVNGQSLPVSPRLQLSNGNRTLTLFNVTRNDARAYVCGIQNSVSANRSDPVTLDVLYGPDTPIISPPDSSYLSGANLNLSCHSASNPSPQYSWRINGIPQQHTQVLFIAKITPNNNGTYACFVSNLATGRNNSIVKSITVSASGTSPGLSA

T3: human CEACAM1 expressed on CHO cell surface (human, UniProt P13688 35-526)
T3 construct: also called CEACAM1-CHO
T3 sequence: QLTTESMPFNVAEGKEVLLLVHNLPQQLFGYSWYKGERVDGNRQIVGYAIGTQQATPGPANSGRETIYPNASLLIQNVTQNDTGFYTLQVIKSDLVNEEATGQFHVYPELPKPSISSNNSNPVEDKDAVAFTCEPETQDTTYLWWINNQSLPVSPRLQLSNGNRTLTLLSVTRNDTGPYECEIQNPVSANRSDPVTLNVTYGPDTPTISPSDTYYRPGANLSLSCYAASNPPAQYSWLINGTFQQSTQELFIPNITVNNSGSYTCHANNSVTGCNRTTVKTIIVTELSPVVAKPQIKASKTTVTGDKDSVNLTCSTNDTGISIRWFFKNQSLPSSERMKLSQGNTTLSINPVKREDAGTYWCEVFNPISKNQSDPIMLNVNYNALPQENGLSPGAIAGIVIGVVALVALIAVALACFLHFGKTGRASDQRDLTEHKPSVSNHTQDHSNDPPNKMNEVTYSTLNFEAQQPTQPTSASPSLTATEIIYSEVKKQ

B1: antibody in SAR-408701 (antibody, human IgG1, kappa, V domains shown)
VH: EVQLQESGPGLVKPGGSLSLSCAASGFVFSSYDMSWVRQTPERGLEWVAYISSGGGITYAPSTVKGRFTVSRDNAKNTLYLQMNSLTSEDTAVYYCAAHYFGSSGPFAYWGQGTLVTVSS
VL: DIQMTQSPASLSASVGDRVTITCRASENIFSYLAWYQQKPGKSPKLLVYNTRTLAEGVPSRFSGSGSGTDFSLTISSLQPEDFATYYCQHHYGTPFTFGSGTKLEIKR
notes: Positive control antibody; also called Sanofi
B2: Hu67-9 (antibody, human IgG1, kappa, V domains shown)
VH: EVQLVQSGAEVKKPGESLKISCKGSGYSFTDYHMNWVRQMPGKGLEWMGDINPDIGGTSYNQNFKGQVTISADKSISTAYLQWSSLKASDTAMYYCARWDFDSFANWGQGTLVTVSS
VL: DIQMTQSPSSLSASVGDRVTITCRASESVSIIGTNLIHWYQQKPGKAPKLLIYHASNLETGVPSRFSGSGSGTDFTLTISSLQPEDFATYYCLQSRKIPYTFGGGTKVEIKR
B3: Hu67-4 (antibody, human IgG1, kappa, V domains shown)
VH: EVQLVQSGAEVKKPGASVKVSCKASGYTFTDYHMNWVRQAPGQRLEWMGDINPDIGGTSYNQNFKGRVTITRDTSASTAYMELSSLRSEDTAVYYCARWDFDSFANWGQGTLVTVSS
VL: B2 VL
B4: Hu67-10 (antibody, human IgG1, kappa, V domains shown)
VH: B2 VH
VL: B2 VL with Q3V, A47P
B5: Hu63-13-2-A (DAR 3.97) (antibody, human IgG1, kappa, V domains shown)
VH: EVQLVQSGAEVKKPGASVKVSCKASGYTFTDFYMNWVRQAPGQGLEWMGDIFPKSGNTDYNRKFKDRVTMTRDTSTSTVYMELSSLRSEDTAVYYCARSGYGNYVFDYWGQGTLVTVSS
VL: DIQMTQSPSSLSASVGDRVTITCRTSQDINIYLNWYQQKPGKAPKLLIYYRSGLLSGVPSRFSGSGSGTDFTLTISSLQPEDFATYYCQQGNTLPPTFGGGTKVEIKR
modifications: see heavy chain; linker-toxin 2-A coupled to cysteine thiols of the TCEP-reduced antibody; mean DAR 3.97 per antibody
B6: Hu63-13-2-A (DAR 6.29) (antibody, human IgG1, kappa, V domains shown)
VH: B5 VH
VL: B5 VL
modifications: see heavy chain; linker-toxin 2-A coupled to cysteine thiols of the TCEP-reduced antibody; mean DAR 6.29 per antibody
B7: Hu103-32-2-A (DAR 6.94) (antibody, human IgG1, lambda, V domains shown)
VH: EVQLVQSGSELKKPGASVKVSCKASGYTFTTYGVIWVRQAPGQGLEWMGWINTYSGVPTYASDFKGRFVFSLDTSVSTAYLQISSLKAEDTAVYYCARKKTLTTVTPWFAYWGQGTLVTVSS
VL: ELVLTQSPSASASLGASVKLTCTLSSQHSTYTIEWYQQQPEKGPRYVMELKKDGSHSTGEGIPDRFSGSSSGAERYLTISSLQSEDEADYYCGVGNTIKEQFVYVFGGGTKLTVLG
modifications: see heavy chain; linker-toxin 2-A coupled to cysteine thiols of the TCEP-reduced antibody; mean DAR 6.94 per antibody
B8: Hu103-32-2-A (DAR 4.8) (antibody, human IgG1, lambda, V domains shown)
VH: B7 VH
VL: B7 VL
modifications: see heavy chain; linker-toxin 2-A coupled to cysteine thiols of the TCEP-reduced antibody; mean DAR 4.8 per antibody
B9: Hu67-14-2-A (DAR 6.41) (antibody, human IgG1, kappa, V domains shown)
VH: B2 VH with R38K, Q67K, A72V
VL: B2 VL
modifications: see heavy chain; linker-toxin 2-A coupled to cysteine thiols of the TCEP-reduced antibody; mean DAR 6.41 per antibody
B10: Hu67-14-2-A (DAR 4.28) (antibody, human IgG1, kappa, V domains shown)
VH: B2 VH with R38K, Q67K, A72V
VL: B2 VL
modifications: see heavy chain; linker-toxin 2-A coupled to cysteine thiols of the TCEP-reduced antibody; mean DAR 4.28 per antibody
B11: Hu47-14-2-A (DAR 6.6) (antibody, human IgG1, kappa, V domains shown)
VH: EVQLVQSGSELKKPGASVKVSCKASGYTFTTYGMSWVKQAPGQGLKWMGWINTYSGVPTYASDFKGRFVFSLDTSVSTAYLQISSLKAEDTAVYYCARRGNYGRWDFDVWGQGTTVTVSS
VL: EIVLTQSPDFQSVTPKEKVTITCSVSSTISSSNLHWYQQKPDQSPKPLIYGTSNLASGVPSRFSGSGSGTDYTLTINSLEAEDAATYYCQQWSIYPLTFGQGTKLEIKR
modifications: see heavy chain; linker-toxin 2-A coupled to cysteine thiols of the TCEP-reduced antibody; mean DAR 6.6 per antibody

Target: T1, monkey CEA expressed on CHO cell surface
Test: FACS, cynoCEA-CHO cells
Procedure: (§1) In order to detect the binding of the antibody to the CEA protein on the cell surface, the binding activity of the antibody was determined by FACS using cells expressing CEA on the cell surface. Cells were harvested and centrifuged at 400 g at 4° C. for 5 min. Pre-cooled PBS containing FBS at final concentration 10% was added, and the mixture was centrifuged at 400 g at 4° C. for 5 min; the procedures were repeated twice. The cells were seeded into a 96-well plate at 10⁵ cells/well, and 100 μL of gradient diluted antibody solution was added to each well. The plate was incubated at 4° C. for 60 min and centrifuged, and the supernatant was removed. 250 μL of pre-cooled PBS containing FBS at final concentration 10% was added to each well to resuspend the cells, and the suspension was centrifuged at 400 g at 4° C. for 5 min, followed by the removal of the supernatant; the procedures were repeated twice. 50 μL of 1:200 diluted secondary antibody Alexa Fluor@488 goat anti-human IgG (H+L) (Lifetechologies, Cat #A11013) was added. […] 250 μL of pre-cooled PBS containing FBS at final concentration 10% was added to each cell to resuspend the cells, and the suspension was centrifuged at 400 g at 4° C. for 5 min; the procedures were repeated twice. 100 μL of pre-cooled PBS was added to each well to resuspend the cells. The plate was analyzed by a flow cytometer (BD, FACSverse) for fluorescence signal values.

Binder | EC50
B1 | 17.3 nM
B2 | 3.72 nM
B3 | 3.06 nM
B4 | 5.37 nM

Target: T2, human CEA protein on the cell surface
Test: FACS, MKN45 cells
Procedure: as §1

Binder | EC50
B2 | 3.75 nM
B3 | 3.25 nM
B4 | 3.19 nM

Target: T2, human CEA protein on the cell surface
Test: cell-based or functional assay

Binder | IC50 of inhibition of cell proliferation, LS174T (with moderate CEA expression) | IC50 of inhibition of cell proliferation, MKN45 (with high CEA expression)
B5 | 19.8 nM | 34 nM
B6 | 13.1 nM | 3.93 nM
B7 | 2.37 nM | 3 nM
B8 | 3.08 nM | 2.86 nM
B9 | 9.24 nM | 3.33 nM
B10 | 15.6 nM | 9.39 nM
B11 | 10.3 nM | 6.58 nM

Target: T3, human CEACAM1 expressed on CHO cell …
Test: FACS, CEACAM1-CHO cells

Binder | binding result
B1 | no binding
